Test results reported in the supplement of paper PMC10126150.
± gives the standard deviation of the averaged measurements.

Tested on: ATP
Assay: switch fluorescence ratio, 500 uM ATP over buffer (Cy3 cluster intensity, sum of 5 cycles each) (fold (ratio)); higher = stronger signal-on switching upon ATP binding; sequences stand for … in TCGTCGGCAGCGTCAGATGTGTATAAGAGACAGTTTTTTTTTTTTTTTTTTTTTTTTT…TC
Details: aptamer strand: ATP DNA aptamer (quencher-CACCTGGGGGAGTATTGCGGAGGAAGG + anchor), 100 nM annealed; ATP concentration: 500 uM
How it was run: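 Between each of five buffer/ATP cycles, the flow-cell was stripped with NaOH and re-annealed. Each cycle imaged Cy3-labelled switching-strand clusters, annealed to 100 nM quencher-labelled ATP aptamer on a modified Illumina MiSeq flow-cell, first in selection buffer and then after 15 min with 500 uM ATP at 22 °C. The fluorescence ratio is summed target-cycle over summed buffer-cycle Cy3 intensity per cluster, averaged per switch-domain sequence, with clusters outside 100-1000 RFU excluded.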
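Note: ATP exposure 15 min at 22 °C before imaging.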

| Sequence | switch fluorescence ratio |
| --- | --- |
| GCCTGGGTTC | 0.985 ± 0.02 |
| GCCTGGTTGT | 1.02 ± 0.013 |
| GCCTTGGGAA | 1.02 ± 0.028 |
| GCCTTGTGCA | 0.995 ± 0.017 |
| GCCTTTCTGA | 0.9855 ± 0.0061 |
| GCCTTTGTAA | 1.09 ± 0.056 |
| GCCTTTTGTT | 0.995 ± 0.027 |
| GCGAAAAAGA | 0.98 ± 0.031 |
| GCGAAAAATA | 1.0196 ± 0.00067 |
| GCGAAAGGGA | 1.02 ± 0.036 |
| GCGAACGGGG | 1.01 ± 0.049 |
| GCGAAGGTCA | 1.01 ± 0.012 |
| GCGACACACT | 1.47 ± 0.058 |
| GCGACATAGG | 0.964 ± 0.042 |
| GCGACATGAT | 1.025 ± 0.0011 |
| GCGACTTGGG | 1.04 ± 0.054 |
| GCGAGAGCTA | 0.9602 ± 0.0021 |
| GCGAGGGGCA | 0.992 ± 0.025 |
| GCGAGGGTCT | 1.01 ± 0.027 |
| GCGAGTACCG | 1.02 ± 0.032 |
| GCGAGTTCTA | 0.963 ± 0.025 |
| GCGATAAAGC | 1.03 ± 0.041 |
| GCGATGAATC | 1.04 ± 0.04 |
| GCGATGCCTC | 1.09 ± 0.043 |
| GCGATGTATA | 1.02 ± 0.013 |
| GCGATGTTTG | 0.998 ± 0.023 |

| Sequence | switch fluorescence ratio |
| --- | --- |
| GCGATTAAGG | 0.9904 ± 0.0013 |
| GCGATTAGAG | 1 ± 0.02 |
| GCGATTATCT | 1.002 ± 0.0064 |
| GCGATTCGGG | 0.978 ± 0.01 |
| GCGATTGAGC | 0.9808 ± 0.004 |
| GCGATTTTTT | 0.974 ± 0.021 |
| GCGCAGTACG | 4.91 ± 0.71 |
| GCGCATTGTT | 1.026 ± 0.0094 |
| GCGCCAGGCG | 0.998 ± 0.025 |
| GCGCCCAACT | 1.03 ± 0.035 |
| GCGCCCGTGG | 1.01 ± 0.034 |
| GCGCCCTGTG | 1.122 ± 0.0062 |
| GCGCGAAGGA | 1.03 ± 0.053 |
| GCGCGCGTTC | 1.03 ± 0.045 |
| GCGCGGAGGA | 1.03 ± 0.029 |
| GCGCGGGGGA | 1.02 ± 0.025 |
| GCGCGGTGGC | 1.09 ± 0.015 |
| GCGCGTTAGC | 1.007 ± 0.0014 |
| GCGCTGGGGG | 1.07 ± 0.081 |
| GCGCTTGCTC | 1.13 ± 0.013 |
| GCGCTTTTGC | 1.04 ± 0.061 |
| GCGGAATATG | 1.13 ± 0.018 |
| GCGGAATGCT | 1.2 ± 0.32 |
| GCGGACCGGG | 1.04 ± 0.031 |
| GCGGAGGGGG | 1 ± 0.035 |
| GCGGAGGGGT | 1.02 ± 0.049 |

| Sequence | switch fluorescence ratio |
| --- | --- |
| GCGGATAAGC | 1.01 ± 0.039 |
| GCGGATGAGC | 0.995 ± 0.013 |
| GCGGATGGCA | 1 ± 0.038 |
| GCGGCACGGG | 1.02 ± 0.054 |
| GCGGCGGAAG | 1.025 ± 0.0042 |
| GCGGGAACGG | 0.992 ± 0.017 |
| GCGGGAAGGG | 0.995 ± 0.033 |
| GCGGGAGTTT | 0.9667 ± 0.0015 |
| GCGGGATTGG | 1.001 ± 0.0077 |
| GCGGGCAAGT | 0.9903 ± 0.00062 |
| GCGGGCACCA | 0.995 ± 0.024 |
| GCGGGCGCCC | 1.011 ± 0.006 |
| GCGGGCGTTC | 1.0164 ± 0.0005 |
| GCGGGCTAAC | 1.17 ± 0.24 |
| GCGGGGAGCG | 1.001 ± 0.0031 |
| GCGGGGCCAT | 1.02 ± 0.028 |
| GCGGGGCCCA | 1.01 ± 0.013 |
| GCGGGGCCTG | 0.993 ± 0.051 |
| GCGGGGCTCA | 1.12 ± 0.11 |
| GCGGGGGAAC | 1.018 ± 0.0055 |
| GCGGGGGACC | 1.011 ± 0.0051 |
| GCGGGGGATG | 1.01 ± 0.034 |
| GCGGGGGCAG | 0.993 ± 0.013 |
| GCGGGGGCAT | 0.964 ± 0.012 |
| GCGGGGGCGC | 0.985 ± 0.016 |
| GCGGGGGGAC | 1.01 ± 0.015 |

| Sequence | switch fluorescence ratio |
| --- | --- |
| GCGGGGGGGG | 1.02 ± 0.041 |
| GCGGGGGTAC | 1.11 ± 0.077 |
| GCGGGGTTTT | 1.01 ± 0.029 |
| GCGGGTCGGG | 0.969 ± 0.054 |
| GCGGTACAGC | 0.9782 ± 0.0069 |
| GCGGTAGACG | 1.01 ± 0.021 |
| GCGGTAGTTT | 0.9974 ± 0.0066 |
| GCGGTGACCG | 0.9978 ± 0.0046 |
| GCGGTGAGAT | 0.989 ± 0.012 |
| GCGGTGGACG | 0.947 ± 0.077 |
| GCGGTGGGGA | 1.03 ± 0.027 |
| GCGGTTAAGG | 0.9577 ± 0.006 |
| GCGGTTCTC | 1.03 ± 0.029 |
| GCGGTTGCGT | 0.971 ± 0.057 |
| GCGTAAATTG | 0.9923 ± 0.0053 |
| GCGTAAGTG | 0.986 ± 0.041 |
| GCGTACTGTG | 0.994 ± 0.022 |
| GCGTAGAGCG | 0.9878 ± 0.0012 |
| GCGTATTCTA | 1 ± 0.033 |
| GCGTCAACTC | 1.1 ± 0.016 |
| GCGTCACGTC | 1.05 ± 0.054 |
| GCGTCCACCA | 1.03 ± 0.067 |
| GCGTCCACGG | 1.017 ± 0.01 |
| GCGTCCCGTG | 0.985 ± 0.11 |
| GCGTCCGCTG | 1.22 ± 0.039 |
| GCGTCGGGGG | 1.01 ± 0.028 |

| Sequence | switch fluorescence ratio |
| --- | --- |
| GCGTGACCGC | 0.995 ± 0.04 |
| GCGTGACGTA | 1 ± 0.088 |
| GCGTGCAGGA | 1.027 ± 0.01 |
| GCGTGCATTC | 1.05 ± 0.017 |
| GCGTGCGTGT | 1.03 ± 0.032 |
| GCGTGTCCGT | 1.01 ± 0.025 |
| GCGTGTCTAT | 0.991 ± 0.019 |
| GCGTTAATAA | 1.06 ± 0.038 |
| GCGTTCAGGT | 1.01 ± 0.02 |
| GCGTTCCTTG | 1.071 ± 0.0017 |
| GCGTTGAGGA | 1.04 ± 0.08 |
| GCGTTGGAGC | 0.9949 ± 0.0072 |
| GCGTTGGCCA | 1.01 ± 0.016 |
| GCGTTGTGTG | 1.02 ± 0.027 |
| GCGTTGTTTG | 0.958 ± 0.042 |
| GCGTTTAGAA | 0.987 ± 0.036 |
| GCGTTTCGGG | 0.968 ± 0.018 |
| GCGTTTGCCC | 1.06 ± 0.072 |
| GCGTTTTTTG | 0.9912 ± 0.0054 |
| GCTAAAGTCG | 0.9814 ± 0.005 |
| GCTAACGGCA | 0.994 ± 0.03 |
| GCTAATAAAT | 1.046 ± 0.0035 |
| GCTAATATTA | 1.03 ± 0.021 |
| GCTACACGGC | 1.02 ± 0.033 |
| GCTACACTGA | 1.04 ± 0.023 |
| GCTACAGCAT | 1.06 ± 0.031 |

| Sequence | switch fluorescence ratio |
| --- | --- |
| GCTACCACTC | 1.089 ± 0.01 |
| GCTACCCATC | 1.1 ± 0.05 |
| GCTACTTTTG | 0.998 ± 0.027 |
| GCTAGAAGTA | 1.02 ± 0.049 |
| GCTAGAGGGT | 1.02 ± 0.027 |
| GCTAGCAATG | 0.982 ± 0.037 |
| GCTAGCTGGT | 0.989 ± 0.021 |
| GCTAGGAAGT | 0.983 ± 0.022 |
| GCTAGGACGT | 0.997 ± 0.03 |
| GCTAGGGTAG | 1.03 ± 0.058 |
| GCTAGTGCTA | 0.996 ± 0.04 |
| GCTATAGTCG | 1.022 ± 0.0027 |
| GCTATCATGG | 0.9727 ± 0.0076 |
| GCTATCTCTT | 1.01 ± 0.012 |
| GCTATTGGTG | 1.06 ± 0.019 |
| GCTATTGTTC | 0.967 ± 0.039 |
| GCTATTTAGG | 1 ± 0.024 |
| GCTCAAAGCT | 1.01 ± 0.043 |
| GCTCATTATT | 1.014 ± 0.0015 |
| GCTCCAATCG | 1.13 ± 0.049 |
| GCTCCAGGGG | 2.88 ± 2.5 |
| GCTCCAGGTA | 1.577 ± 0.0021 |
| GCTCCATTTG | 0.983 ± 0.021 |
